According to the supplement of paper PMC9233669:
Variants at the floor of the assay were thinned out.

Columns and labels:
[1] = system: biotinyl-Leu-oxazolone; assay: self-aminoacylation, catalytic enhancement (BLO) (fold over background); higher = more active; k-Seq, kA / k0A0; sequences stand for … in GGGAAUGGAUCCACAUCUACGAAUUC…UUCACUGCAGACUUGACGAAGCUG
How it was run: (§1)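 Mutagenized RNA pools with a 21-nt variable region (0.43 μM) reacted with each biotinyl-aminoacyl-oxazolone at 2–1250 μM. Reactions ran in 50 μL HEPES/NaCl/KCl/MgCl2/CaCl2 buffer with 5% acetonitrile, pH 6.9–7.0, for 90 minutes at room temperature. Streptavidin-captured RNA was quantified by triplicate qPCR and Illumina sequencing, and per-sequence fraction reacted was fit to a pseudo-first-order model with 1000 bootstraps. Catalytic enhancement is median kA divided by the uncatalyzed rate, the low-activity peak of a bimodal Gaussian fit.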

[2] = system: biotinyl-Val-oxazolone; assay: self-aminoacylation, catalytic enhancement (BVO) (fold over background); higher = more active; k-Seq, kA / k0A0; sequences stand for … in GGGAAUGGAUCCACAUCUACGAAUUC…UUCACUGCAGACUUGACGAAGCUG
How it was run: as §1

[3] = system: biotinyl-Phe-oxazolone; assay: self-aminoacylation, catalytic enhancement (BFO) (fold over background); higher = more active; k-Seq, kA / k0A0; sequences stand for … in GGGAAUGGAUCCACAUCUACGAAUUC…UUCACUGCAGACUUGACGAAGCUG
How it was run: as §1

[4] = system: biotinyl-Met-oxazolone; assay: self-aminoacylation, catalytic enhancement (BMO) (fold over background); higher = more active; k-Seq, kA / k0A0; sequences stand for … in GGGAAUGGAUCCACAUCUACGAAUUC…UUCACUGCAGACUUGACGAAGCUG
How it was run: as §1

[5] = system: biotinyl-Ile-oxazolone; assay: self-aminoacylation, catalytic enhancement (BIO) (fold over background); higher = more active; k-Seq, kA / k0A0; sequences stand for … in GGGAAUGGAUCCACAUCUACGAAUUC…UUCACUGCAGACUUGACGAAGCUG
How it was run: as §1

[6] = system: biotinyl-Trp-oxazolone; assay: self-aminoacylation, catalytic enhancement (BWO) (fold over background); higher = more active; k-Seq, kA / k0A0; sequences stand for … in GGGAAUGGAUCCACAUCUACGAAUUC…UUCACUGCAGACUUGACGAAGCUG
How it was run: as §1

Row | Sequence | self-aminoacylation [1] | self-aminoacylation [2] | self-aminoacylation [3] | self-aminoacylation [4] | self-aminoacylation [5] | self-aminoacylation [6]
1 | CCACACUUCAAGCAUUCGGUG [Fam1B.1 aminoacylation ribozyme variant] | 11 | 5.97 | 68.5 | 8.89 | 5.54 | 7.88
2 | CCACACUUCAAGCCAUCGGUC [Fam1B.1 aminoacylation ribozyme variant] | 0.986 | 1.24 | 0.854 | 0.95 | 0.995 | 0.932
3 | CCACACUUCAAGCCAUCGGUG [Fam1B.1 aminoacylation ribozyme variant] | 6.79 | 4.15 | 31.3 | 4.72 | 3.57 | 4.89
4 | CCACACUUCAAGCCAUUGGUC [Fam1B.1 aminoacylation ribozyme variant] | 0.848 | 1.09 | 0.631 | 0.874 | 0.787 | 0.734
5 | CCACACUUCAAGCGAUCAGUC [Fam1B.1 aminoacylation ribozyme variant] | 0.665 | 0.776 | 1.37 | 0.699 | 0.884 | 0.843
6 | CCACACUUCAAGCGAUCGGAC [Fam1B.1 aminoacylation ribozyme variant] | 1.26 | 1.27 | 0.588 | 1.33 | 1.22 | 1.36
7 | CCACACUUCAAGCGAUCGGUC [Fam1B.1 aminoacylation ribozyme variant] | 0.815 | 1.02 | 1.72 | 0.743 | 0.887 | 1.51
8 | CCACACUUCAAGCUAUCGGUG [Fam1B.1 aminoacylation ribozyme variant] | 6.48 | 3.77 | 33 | 5.19 | 3.88 | 5.5
9 | CCACACUUCAAGCUAUUGGUC [Fam1B.1 aminoacylation ribozyme variant] | 0.595 | 0.759 | 0.896 | 0.643 | 0.797 | 0.661
10 | CCACACUUCAAGCUCUCGGUC [Fam1B.1 aminoacylation ribozyme variant] | 1.25 | 1.42 | 0.716 | 1.14 | 1.21 | 1.1
11 | CCACACUUCAAGGAAUCGGCC [Fam1B.1 aminoacylation ribozyme variant] | 2.39 | 2.4 | 1.42 | 2.08 | 1.89 | 4.4
12 | CCACACUUCAAGGAAUCGGUA [Fam1B.1 aminoacylation ribozyme variant] | 1.23 | 1.18 | 0.499 | 1 | 1.26 | 0.902
13 | CCACACUUCAAGGUAUCGGUC [Fam1B.1 aminoacylation ribozyme variant] | 0.907 | 0.995 | 0.829 | 0.95 | 0.941 | 1.28
14 | CCACACUUCAAGUCAUCGGUC [Fam1B.1 aminoacylation ribozyme variant] | 1.31 | 1.32 | 0.991 | 1.04 | 1.05 | 0.698
15 | CCACACUUCAAUCAAUAGGUC [Fam1B.1 aminoacylation ribozyme variant] | 0.517 | 0.646 | 1.11 | 0.569 | 0.573 | 0.511
16 | CCACACUUCAAUCAAUCGGUA [Fam1B.1 aminoacylation ribozyme variant] | 0.609 | 0.849 | 0.825 | 0.749 | 0.79 | 0.739
17 | CCACACUUCAAUCAAUCGGUU [Fam1B.1 aminoacylation ribozyme variant] | 1.34 | 1.21 | 7.61 | 1.16 | 1.47 | 5.87
18 | CCACACUUCACGCAAACGGUC [Fam1B.1 aminoacylation ribozyme variant] | 0.861 | 0.995 | 0.827 | 0.793 | 0.736 | 0.98
19 | CCACACUUCACGCAACCGGUC [Fam1B.1 aminoacylation ribozyme variant] | 1.55 | 1.55 | 0.978 | 1.21 | 1.24 | 0.831
20 | CCACACUUCACGCAAUCGGUU [Fam1B.1 aminoacylation ribozyme variant] | 1.95 | 1.92 | 0.906 | 2.01 | 1.76 | 1.45
21 | CCACACUUCAGGCAAUCGAUC [Fam1B.1 aminoacylation ribozyme variant] | 0.591 | 0.892 | 0.731 | 0.634 | 0.813 | 0.804
22 | CCACACUUCAUGCAAUCGCUC [Fam1B.1 aminoacylation ribozyme variant] | 1.1 | 1.06 | 0.603 | 1.36 | 0.99 | 0.588
23 | CCACACUUCAUGCAAUCGGGC [Fam1B.1 aminoacylation ribozyme variant] | 1.38 | 1.84 | 0.961 | 1.25 | 1.86 | 1.77
